Test: soluble on expression in E. coli; label from the status in PepcDB or PDB records

Sequence | soluble on expression in E. coli
MGSDKIHHHHHHSCENEFDVSDKADSLISVTVNTLNNQAAYNVGETAQAELWIQRGGLKDASGKVQFVVDPLLLDSLNQEDKTNYELLPENCYEMTNTEFTVDKNELCGYITYHPEKILALSAYNETKYVLPLRLISNDLAINPARNTSFLAFTILEPIVHISNAGVYNINPDLTSTMDIQIGVPFTNKWDILCNLTEDLSLIDEYNQINKVNFTLLPENAYTAPESVTLQEGVSQITASYQLKNNLVPGNYILPIKIGSITASQGGVPNNSLVIDEESNVLFCIVKEGNKINKSGWEVIECSSEHAGNEATYMIDDNESTYWHCKFKNEAGSSVPPFHFIIDMKKEITIAQIDLLNRGDGAANNIKWVEFYASNNNSEWDKIGAGDFNDEGTRATFRYYVKSTKARYLKLIIPEGYGNNCPPAAIRELTVYGLEGNN | not soluble
FNLKTPGREDDASSESGDNAEAERAPAFIRALGGAANLEVVDACTTRLRLRLVDRNKASDAQLKALGAMAVVRPGKAGSLQVVVGPQADSIADEIRRALPFDTQPGEAVPPLGSPHTAEEVVAMQATVDAAEAQAWLGALGGAGNLREVRDVALTRLRVSVADERKLATEQLRRLGGQGVSSLAGGICHILVGPRAAALSQALQPLLR | not soluble
MGSDKIHHHHHHMINSTFLTNRVFSTWYYFSLLLYKEKGCDLVKTPKIVVLGAGYGGMITTVRLQKALSVNEAEITLVNNNSYHYQATWLHESAAGTLQDEKICLDIQDVIDTNKVNFVQDTVVEIKAAEKRIILKDGELEYDYLVIGLGFESETFGITGLKEHAFSIANINATRQIREHMEASFAKYADEKRDELVTIVVGGAGFTGIEYVGELANRVPELCKQYNVPREKARIICVEAAPTALPGFDPALVEYAVKQLEKKGVEFRIGTAIKEATEEGIIVANGDDTELIKSETVVWAAGVRGNGIVEESGFEAMRGRVKVDEYMHAPGYEDVFMVGDAALIINEEINRPYPPTAQIAIQQGYNIAHNLTVLVRGKGEMKKFVFDNKGSVCSLGHDDAMGVVMGKKLTGWKASFMKKVIDNRYLFLLGGPLLVLKKGKLKFF | not soluble
MGSDKIHHHHHHMHVIVKNRYTQEIIHFFLENCRTESLRRSSIYAADFLYGKDQGFFIELRERISNYLDRNVDRISIEIASETGKPFKYIREEILQTIREIKSIRIPEDLHEFVKPGVSALNYNCNDPVLSLFVPLFATILQGSPVLVFANPYNFVSAHIIISMLSEIGLPEGVVNVIPFKPNFNYAYLYGENFSYFQDTYDGLGINRIIQSERHKPATVLWGDIDPDSAVSEFTKRLVRMPFSNEQLLVVDRRMFEYVLNRLKEELSRIVVGDPADGATDLGPVTKDEDLMEALSIVGKYRVERLLAMFRGVEGNLMKPAIILTDDVVKDPFVHAPLVYLVNSASVEDAVNLINEVEADRCALFSDDSKLLKMLYGRTACKEISFNSYMYKDYLFKPFLVKRKILM | not soluble
MAHHHHHHMSDSALLEGVSFPVEPFAEKHRKILALLAHAATQAVNTRSNEVVFDVLCSSEPSLARLYPEVAVLQGVHQIRRVLRNLQDSQPHVRPMYLKMIVDSLKDMNEMLPDPLLLVIARTVEILEGEGRGFRELEPHLLDLVEYIQVVILRETKLLQCRGTLITLRLRGVPPFVASETESTT | not soluble
MGSDKIHHHHHHMIQPVSCICPIAAKLITSRPAQKLLPAPESTTARASEAATSLAAAITAASMCLSTAFILSARVRVTWATWSRISTDTRALSSAITAPPSGCRLNVACSLPRFGRAFQPDARARRTGSFPDRDLISPDLPLPACARAARSWAMTDSRQTPLAQSLPASVPFVGPETHERQRGAPFVARLGANENLFGVSPKAIAAMQASAAEIWKYGDAESYELRAALSALHGIAPEHIMVGEGIDGLLGNLVRLYVGAGDAVVTSLGAYPTFNYHVAGFGGDLHTVPYKDDHEDIKALMAKAHEVGAKLVYLANPDNPMGSWHRGADIVAALDDLPEGSLLVLDEAYVECAPKGTAAPVDVTDPRVIRMRTLSKAYGMAGARVGYAMGAVEVISAFHKVRNHFGMNRCAQIGATEAIKDQAWLAHVQAEIATAREEISRIARENGLTPLPSATNFVAIDCGRDGAFAKAVLEALVARDIFVRMPFAAPQNRCIRVSCGPERERRAFAEALPLALKDAQNGA | not soluble
GPGSMEAGGDDLFVINDVEADQMEEVRDARPVEQAQETEADVMESVKGLVPLCVQHAQGPQLSSATFGYDIALMAKRPWAEPGAKLSDYFNYGFNEQSWRVYCAMQEKGEESLLANATAVLQKLELAARPG | soluble
MGKENLYVVLPSYNEEANIGKLINEWNVQFKDLEARGIKLEIIIVNDGSTDNTLAVAEAFSKHNDNVVVIDHGVNKGLGEGLNTGINYVLSQKQKGYMCLMDGDMTHEPKYIFSMLDKLQEEKLDCVIASRYRRGAKVEGLSLFRKFLSFGARVLYTIRLGIPNVRDYTCGYRLYKTSVLEKLHKVYGKRIVKETGFACMMELIVKVSKENFKIGEVPFVLKYQLKGGESKMKVGKTIKRSLLLLRVYK | soluble
MSLEFQNLANRILDEKSRSFSQSNQTALETLLKPFREQIEGFQKRVNEIHSESVKGNAGLEAEIKKVLEIGLNMSQEASNLTSALKGEKKTLGNWGEVQLERALQLAGLEENVHYRAQAHFKDEQGGRNYPDFVLNLPDEKHLIIDSKMSLVAYESAVNSEDDFERERLLKEHISALKTHINDLHKKDYSNLIGMCSPNFVLMFIAVEPAYIEALKADPALFNYGYERNVIMVSHTTLMPILRTVANLWRIERGNAEAKEIAEKAGEIYNQICLVAERLNKLGNTLSTVSNQYNSTVTALVGQQGLVGKVERFKTLSAKANKTMPDVDLLNNQLDLARLNVLNQENLQEGHHHHHH | soluble
MMNISHKDHHNDQEISDANRDWWDSDAQRYHNDHAAYLNGFHWCPEMLPEREAHLLGDISGLNVLEIGCGSAPCSRWLFDNYDAFVTGFDLSMGMLRHSPTDVPLTQADAVNLPYKDSSFDIAFSAFGAFPFIENLGPVLKDIARCLKPHGKLVFSTNHPMRWIFPDDPTEIGLCAELSYFDRSYTERDKNGKITYAEFHRTMGDWIELLNASGFIIDRLIEPEWPTNLTETWGQWSPLRGRIFPGTAIFVTHCR | not soluble
MGSDKIHHHHHHMTVCIACGSTKVEPFLDLHETTLANKFLAPEEIGAVEPRHPLVVGFCPECSHVQLTHLVPPAAMFEDYLYISSLSKTLVGHLHGLAATVIERFKLGADDLFIDVGCNDGTLLSEAKRRGVRILGIDPAKNLAPLAKKNGVDTLVAFFGTETAAKVVAEHGKASVVTATNVFPHIPVLDDLVKGLDVVLKPGGVFVAEAHYLGDLLDACAFDTVYHEHCSYWSLHAAQYMFQRHGFEVVDIQRLPIHHGQLRLFAMRKGEGQPTAAVATLLAEEVKRGMTGIECYRAFAKRVEAIREELHAAFAGFKAAGKTVVGYGAPAKGNTLLSYIGFGPEQLAYIADKSPLKQGRVTPGTHIPVVGPERLLADQPDYVLLLAWNFADEILVEQAEYRARGGKFILPVPEVKIV | not soluble
RAQRKMSAQSLPAATPPTQKPPRIIRPRPPSRSRAAQSPGPPHNGSSPQELPRNSNDAPTPMCTPIFWEPPAASLKPPALLPPSASRASLDSQTSPDSPSSTPTPSPVSRRSASPEPAPRSPVPPPKPSGSPCTPLLPMAGVLAQNGSASAPGTVRRLAGRFEGGAEGRAQDADAPEPGLQARADVNGEREAPLTGSGSQENGAPDAGLACPPCCPCVCHTTRPGLELRWVPVGGYEEVPRVPRRASPLRTSRSRPHPPSIGHPAVVLTSYRSTAERKLLPLLKPPKPTRVRQDATIFGDPPQPDLDLLSEDGIQTGDSPDEAPQNTPPATVEGREEEGLEVLKEQNWELPLQDEPLYQTYRAAVLSEELWGVGEDGSPSPANAGDAPTFPRPPGPRNTLWQELPAVQASGLLDTLSPQERRMQESLFEVVTSEASYLRSLRLLTDTFVLSQALRDTLTPRDHHTLFSNVQRVQGVSERFLATLLSRVRSSPHISDLCDVVHAHAVGPFSVYVDYVRNQQYQEETYSRLMDTNVRFSAELRRLQSLPKCERLPLPSFLLLPFQRITRLRMLLQNILRQTEEGSSRQENAQKALGAVSKIIERCSAEVGRMKQTEELIRLTQRLRFHKVKALPLVSWSRRLEFQGELTELGCRRGGVLFASRPRFTPLCLLLFSDLLLITQPKSGQRLQVLDYAHRSLVQAQQVPDPSGPPTFRLSLLSNHQGRPTHRLLQASSLSDMQRWLGAFPTPGPLPCSPDTIYEDCDCSQELCSESSAPAKTEGRSLESRAAPKHLHKTPEGWLKGLPGAFPAQLVCEVTGEHERRRHLRQNQRLLEAVGPSSGTPNAPPP | soluble

Reference: the DeepSol protein solubility set
